Assay results reported in patent US20190062394A1.

Experiments:
Destabilized IL-12 #5 [1] = system: Destabilized IL-12 #5
Destabilized IL-12 #2 [2] = system: Destabilized IL-12 #2
Destabilized IL-12 #5 [3] = experiment: cell-based or functional assay
Destabilized IL-12 #2 [4] = experiment: cell-based or functional assay
Destabilized IL-12 #27 = biological target: T1, Destabilized IL-12 #27
T1 chain: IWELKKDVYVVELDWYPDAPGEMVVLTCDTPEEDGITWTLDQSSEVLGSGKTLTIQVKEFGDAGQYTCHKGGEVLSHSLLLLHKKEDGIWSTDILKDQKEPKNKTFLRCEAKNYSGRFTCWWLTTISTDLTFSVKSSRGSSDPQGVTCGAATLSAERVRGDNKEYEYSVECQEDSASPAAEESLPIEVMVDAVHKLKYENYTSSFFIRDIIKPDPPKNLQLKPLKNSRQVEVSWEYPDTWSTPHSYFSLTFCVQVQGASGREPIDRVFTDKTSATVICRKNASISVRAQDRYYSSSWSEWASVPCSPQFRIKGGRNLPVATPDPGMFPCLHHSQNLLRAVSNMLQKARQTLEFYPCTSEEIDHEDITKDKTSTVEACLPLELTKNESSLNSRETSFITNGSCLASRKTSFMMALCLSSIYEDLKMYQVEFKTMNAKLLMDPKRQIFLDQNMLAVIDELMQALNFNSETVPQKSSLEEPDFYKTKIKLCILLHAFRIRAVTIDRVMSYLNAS

Destabilized IL-12 #12 = biological target: T2, Destabilized IL-12 #12
T2 chain: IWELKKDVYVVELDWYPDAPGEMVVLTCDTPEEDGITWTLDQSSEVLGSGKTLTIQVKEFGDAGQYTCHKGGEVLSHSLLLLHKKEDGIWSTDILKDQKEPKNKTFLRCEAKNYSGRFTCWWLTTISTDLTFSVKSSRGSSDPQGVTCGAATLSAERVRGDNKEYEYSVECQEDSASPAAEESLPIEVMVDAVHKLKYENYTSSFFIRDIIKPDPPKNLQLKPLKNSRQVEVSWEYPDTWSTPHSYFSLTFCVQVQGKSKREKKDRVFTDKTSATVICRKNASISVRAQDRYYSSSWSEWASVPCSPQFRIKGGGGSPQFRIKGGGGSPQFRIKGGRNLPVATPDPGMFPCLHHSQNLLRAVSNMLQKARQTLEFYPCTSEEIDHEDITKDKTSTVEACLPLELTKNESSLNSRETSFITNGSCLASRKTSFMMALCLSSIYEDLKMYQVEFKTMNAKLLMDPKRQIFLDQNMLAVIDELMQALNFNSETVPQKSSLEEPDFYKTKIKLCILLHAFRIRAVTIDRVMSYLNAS

Destabilized IL-12 #11 = biological target: T3, Destabilized IL-12 #11
T3 chain: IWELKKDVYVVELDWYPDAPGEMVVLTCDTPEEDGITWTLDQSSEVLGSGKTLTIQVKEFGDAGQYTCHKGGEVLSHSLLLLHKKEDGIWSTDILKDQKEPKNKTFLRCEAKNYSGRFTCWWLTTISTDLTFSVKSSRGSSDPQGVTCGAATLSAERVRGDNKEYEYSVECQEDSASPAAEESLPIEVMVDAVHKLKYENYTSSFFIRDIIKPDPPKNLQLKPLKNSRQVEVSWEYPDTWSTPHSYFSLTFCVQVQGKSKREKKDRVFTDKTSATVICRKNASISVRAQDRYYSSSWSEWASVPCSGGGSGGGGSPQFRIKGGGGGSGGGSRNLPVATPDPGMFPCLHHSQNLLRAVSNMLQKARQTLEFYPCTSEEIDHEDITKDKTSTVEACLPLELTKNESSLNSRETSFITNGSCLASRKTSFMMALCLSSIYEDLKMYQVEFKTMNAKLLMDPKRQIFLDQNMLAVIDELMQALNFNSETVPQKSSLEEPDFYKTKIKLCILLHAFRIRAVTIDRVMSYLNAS

Destabilized IL-12 #21 = biological target: T4, Destabilized IL-12 #21
T4 chain: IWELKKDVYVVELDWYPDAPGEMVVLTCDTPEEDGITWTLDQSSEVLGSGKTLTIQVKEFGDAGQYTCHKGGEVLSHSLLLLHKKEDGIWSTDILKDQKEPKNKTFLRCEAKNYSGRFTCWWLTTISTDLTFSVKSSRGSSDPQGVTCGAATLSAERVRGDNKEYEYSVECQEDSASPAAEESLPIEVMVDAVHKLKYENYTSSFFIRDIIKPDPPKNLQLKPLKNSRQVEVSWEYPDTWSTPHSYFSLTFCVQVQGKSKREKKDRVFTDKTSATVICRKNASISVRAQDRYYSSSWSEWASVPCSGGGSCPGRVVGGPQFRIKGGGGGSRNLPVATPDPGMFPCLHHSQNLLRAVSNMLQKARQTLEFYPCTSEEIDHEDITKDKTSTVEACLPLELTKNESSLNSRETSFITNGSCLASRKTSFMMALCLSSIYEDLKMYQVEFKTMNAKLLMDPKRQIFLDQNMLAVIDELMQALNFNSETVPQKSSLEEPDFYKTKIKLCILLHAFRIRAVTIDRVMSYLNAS

Destabilized IL-12 #18 = biological target: T5, Destabilized IL-12 #18
T5 chain: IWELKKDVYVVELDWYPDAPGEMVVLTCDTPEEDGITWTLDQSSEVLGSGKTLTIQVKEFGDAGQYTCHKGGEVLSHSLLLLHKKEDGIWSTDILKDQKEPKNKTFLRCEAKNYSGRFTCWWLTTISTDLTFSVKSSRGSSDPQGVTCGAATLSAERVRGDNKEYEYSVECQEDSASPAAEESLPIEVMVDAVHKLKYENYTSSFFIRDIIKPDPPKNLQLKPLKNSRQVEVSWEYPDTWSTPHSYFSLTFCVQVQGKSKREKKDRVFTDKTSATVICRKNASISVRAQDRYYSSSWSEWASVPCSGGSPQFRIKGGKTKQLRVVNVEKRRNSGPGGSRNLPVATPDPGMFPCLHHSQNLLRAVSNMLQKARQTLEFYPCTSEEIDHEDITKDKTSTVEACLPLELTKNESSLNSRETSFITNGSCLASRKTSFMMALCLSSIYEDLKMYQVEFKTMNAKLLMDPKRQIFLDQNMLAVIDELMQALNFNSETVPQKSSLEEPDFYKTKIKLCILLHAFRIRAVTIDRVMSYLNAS

Chain of Destabilized IL-12 #4 (chain, as listed by the source): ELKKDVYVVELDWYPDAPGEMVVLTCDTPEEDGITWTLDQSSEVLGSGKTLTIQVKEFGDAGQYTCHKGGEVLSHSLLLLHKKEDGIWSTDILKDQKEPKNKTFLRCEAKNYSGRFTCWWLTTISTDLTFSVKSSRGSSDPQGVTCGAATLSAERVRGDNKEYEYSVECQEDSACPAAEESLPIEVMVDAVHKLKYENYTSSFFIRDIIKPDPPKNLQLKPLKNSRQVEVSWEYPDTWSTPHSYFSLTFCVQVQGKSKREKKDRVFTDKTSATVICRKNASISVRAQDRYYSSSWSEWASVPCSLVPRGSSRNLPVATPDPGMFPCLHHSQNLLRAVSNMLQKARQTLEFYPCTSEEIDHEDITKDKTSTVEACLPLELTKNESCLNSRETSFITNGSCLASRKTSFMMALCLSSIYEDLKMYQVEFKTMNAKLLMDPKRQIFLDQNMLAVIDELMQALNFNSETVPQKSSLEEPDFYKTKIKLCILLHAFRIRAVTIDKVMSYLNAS

thrombin was tested, and the “fold reduction in biological activity (NK-92 assay) after thrombin digestion, against wild-type single chain IL-12” value (from here on “fold reduction in biological activity”) (Destabilized IL-12 #5 [1]) was “(~9 fold decrease*)”, the “thrombin cleavage (67 U/mL, 20 hours, 37 degrees C), anti-p35 immunoblot, reducing conditions” value (Destabilized IL-12 #5 [1]) was “Under reducing conditions, thrombin cleavage of all three IL-12 mutants was detected” and the “thrombin cleavage (67 U/mL, 20 hours, 37 degrees C), anti-p40 immunoblot, reducing conditions” value (Destabilized IL-12 #5 [1]) was “Under reducing conditions, thrombin cleavage of all three IL-12 mutants was detected”. The “fold reduction in biological activity” value (Destabilized IL-12 #2 [2]) was “(~11 fold decrease*)”, the “thrombin cleavage (67 U/mL, 20 hours, 37 degrees C), anti-p35 immunoblot, reducing conditions” value (Destabilized IL-12 #2 [2]) was “Under reducing conditions, thrombin cleavage of all three IL-12 mutants was detected” and the “thrombin cleavage (67 U/mL, 20 hours, 37 degrees C), anti-p40 immunoblot, reducing conditions” value (Destabilized IL-12 #2 [2]) was “Under reducing conditions, thrombin cleavage of all three IL-12 mutants was detected”. The “fold reduction in biological activity” value (Destabilized IL-12 #4) was “(~1.5 fold decrease*)”, the “thrombin cleavage (67 U/mL, 20 hours, 37 degrees C), anti-p35 immunoblot, non-reducing conditions” value (Destabilized IL-12 #4) was “under non-reducing conditions, thrombin cleavage of Destabilized #4 was not detected” and the “thrombin cleavage (67 U/mL, 20 hours, 37 degrees C), anti-p35 immunoblot, reducing conditions” value (Destabilized IL-12 #4) was “Under reducing conditions, thrombin cleavage of all three IL-12 mutants was detected”. For the same molecule, the “thrombin cleavage (67 U/mL, 20 hours, 37 degrees C), anti-p40 immunoblot, non-reducing conditions” value (Destabilized IL-12 #4) was “under non-reducing conditions, thrombin cleavage of Destabilized #4 was not detected” and the “thrombin cleavage (67 U/mL, 20 hours, 37 degrees C), anti-p40 immunoblot, reducing conditions” value (Destabilized IL-12 #4) was “Under reducing conditions, thrombin cleavage of all three IL-12 mutants was detected”.

thrombin (enzyme) was tested, and the thrombin dose needed to reduce IFNg secretion of NK-92 cells (HTRF) (Destabilized IL-12 #5 [3]) was 10 U/mL and the thrombin dose needed to reduce IFNg secretion of NK-92 cells (HTRF) (Destabilized IL-12 #2 [4]) was 10 U/mL.

B1: human Plasmin (23.3 Units/mg; Millipore) (protein)
chain: KVYLSECKTGNGKNYRGTMSKTKNGITCQKWSSTSPHRPRFSPATHPSEGLEENYCRNPDNDPQGPWCYTTDPEKRYDYCDILECEEECMHCSGENYDGKISKTMSGLECQAWDSQSPHAHGYIPSKFPNKNLKKNYCRNPDRELRPWCFTTDPNKRWELCDIPRCTTPPPSSGPTYQCLKGTGENYRGNVAVTVSGHTCQHWSAQTPHTHNRTPENFPCKNLDENYCRNPDGKRAPWCHTTNSQVRWEYCKIPSCDSSPVSTEQLAPTAPPELTPVVQDCYHGDGQSYRGTSSTTTTGKKCQSWSSMTPHRHQKTPENYPNAGLTMNYCRNPDADKGPWCFTTDPSVRWEYCNLKKCSGTEASVVAPPPVVLLPDVETPSEEDCMFGNGKGYRGKRATTVTGTPCQDWAAQEPHRHSIFTPETNPRAGLEKNYCRNPDGDVGGPWCYTTNPRKLYDYCDVPQCAAPSFDCGKPQVEPKKCPGRVVGGCVAHPHSWPWQVSLRTRFGMHFCGGTLISPEWVLTAAHCLEKSPRPSSYKVILGAHQEVNLEPHVQEIEVSRLFLEPTRKDIALLKLSSPAVITDKVIPACLPSPNYVVADRTECFITGWGETQGTFGAGLLKEAQLPVIENKVCNRYEFLNGRVQSTELCAGHLAGGTDSCQGDSGGPLVCFEKDKYILQGVTSWGLGCARPNKPGVYVRVSRFVTWIEGVMRNN
For B1, the “proteolytic digestion, 1 hour, reducing SDS-PAGE and anti-p40 Western blot” value (Destabilized IL-12 #27) was 2.5 mU of plasmin were required for partial digestion of DSIL-12#27, the “proteolytic digestion, 1 hour, reducing SDS-PAGE and anti-p40 Western blot” value (Destabilized IL-12 #12) was “Partial digestion of DSIL-12#11, DSIL-12#12, DSIL-12#21 and DSIL-12#18 was detected with as little as 0.05 mU of plasmin” and the “proteolytic digestion, 1 hour, reducing SDS-PAGE and anti-p40 Western blot” value (Destabilized IL-12 #11) was “Partial digestion of DSIL-12#11, DSIL-12#12, DSIL-12#21 and DSIL-12#18 was detected with as little as 0.05 mU of plasmin”. For the same molecule, the “proteolytic digestion, 1 hour, reducing SDS-PAGE and anti-p40 Western blot” value (Destabilized IL-12 #21) was “Partial digestion of DSIL-12#11, DSIL-12#12, DSIL-12#21 and DSIL-12#18 was detected with as little as 0.05 mU of plasmin” and the “proteolytic digestion, 1 hour, reducing SDS-PAGE and anti-p40 Western blot” value (Destabilized IL-12 #18) was “Partial digestion of DSIL-12#11, DSIL-12#12, DSIL-12#21 and DSIL-12#18 was detected with as little as 0.05 mU of plasmin”.
